In patent US20230241258A1 (Bristol-Myers Squibb, published 2023):
Each block holds one binder with its values, some of them ahead of it.

Legend:
[1] = molecular target: T1, human PD-L1 (human, UniProt Q9NZQ7 19-290); experiment: radioligand cell binding on ice for 1 hour, gamma counter
T1 construct: whole, on cells; PD-L1-negative HT-29 cells served as the negative comparison; also called hPD-L1; B7-H1
Protocol: After the incubation period, cell samples were centrifuged at 200×g and the supernatant was discarded. Cell pellets were resuspended in 1 mL PBS+0.5% BSA and the wash procedure repeated for a total of 3 washes. Following the final wash, cells were again centrifuged at 200×g and the supernatant was discarded. The radioactivity of the remaining cell pellets was then measured by gamma counter.

[2] = molecular target: T1, human PD-L1; experiment: cell-based or functional assay
[3] = molecular target: T1, human PD-L1; experiment: competition autoradiography on frozen tissue sections; unlabeled A02 at 0.025, 0.25, 2.5 and 25 nM displaces 0.25 nM 18F-DBCO-A02 radioligand

fold cell associated radioactivity, PD-L1-positive L2987 cells over PD-L1-negative HT-29 cells [1]: 44.6 fold
B1: [^18F]-E01-4PEG-DBCO-FPPEGA (designed binder)
chain: GVSDVPRDLEVVAATPTSLLISWRAQLSPSFYYRITYGETGGNSPVQEFTVPNDVMTATISGLKPGVDYTITVYAVTTHGVYFYSPISINYRTPC
modifications: C-terminal cysteine thiol linked to Maleimide-PEG4-DBCO, which is clicked to [^18F]-FPPEGA (^18F prosthetic group)
notes: also called ^18F-radiolabeled E01-4PEG-DBCO; ^18F-E01 adnectin radiotracer

maximum radiotracer uptake ratio, hPD-L1(+) L2987 vs. hPD-L1(-) HT-29 xenografts [2]: 3.53 ratio
radiotracer uptake in PD-L1(+) L2987 xenografts relative to PD-L1(-) HT-29 xenografts, PET in mice, co-injected with 3 mg/kg unlabeled A02 Adnectin [2]: 1.04 fold
radiotracer uptake in PD-L1(+) L2987 xenografts relative to PD-L1(-) HT-29 xenografts, PET in mice, final 10 minutes of the time-activity curve [2]: 3.05 fold
B2: [^18F]-radiolabeled-A02-PEG-DBCO-FPPEGA (designed binder)
chain: EVVAATPTSLLISWSYDGPIDRYYRITYGETGGNSPVQEFTVPPDQKTATISGLKPGVDYTITVYAVRLEEAHYNREFPISINYRTPC
modifications: C-terminal cysteine linked to Maleimide-PEG4-DBCO and clicked to [^18F]-FPPEGA (produced as described in Example 9)

binding result [3]: binds
B3: A02 Adnectin, cold (unlabeled) (designed binder)
chain: EVVAATPTSLLISWSYDGPIDRYYRITYGETGGNSPVQEFTVPPDQKTATISGLKPGVDYTITVYAVRLEEAHYNREFPISINYRTPC
notes: also called unlabeled anti-PD-L1 A02 adnectin
